From doi:10.1101/2024.07.29.605519 come the findings set out here.

The target in assay [1] is SCRM KiDoK peptide (Arabidopsis). Put plainly: ITC; Malvern PEAQ-ITC, 25 °C, PBS pH 7.4 with 2% DMSO; SCRM KiDoK peptide with MPK6ΔNt (29–305); without kC9.
Assay [2] has the same target. Put plainly: ITC; as a3, but MPK6ΔNt (29–305) pre-incubated with the small molecule kC9.
Assay [3] shares this target. The assay is described as follows: BLI; Octet Red96; biotinylated SCRM KiDoK peptide (500 nM) loaded on streptavidin probes, MPK6 as analyte (150 nM and two-fold dilutions); 25 °C; 1x PBS, 2 % DMSO, 0.02 % Tween20, 0.1 % BSA; 1:1 model, Kd from steady-state analysis; without kC9.
Assay [4] has the same target. The assay is described as follows: BLI; as a1, but MPK6 pre-incubated with the small molecule kC9 (MPK6:kC9 1:1.5 in the methods, 1:2 in the legend) as analyte.

Chain of MPK6ΔNt (29–305) (Q39026 29-305, stated change not applied): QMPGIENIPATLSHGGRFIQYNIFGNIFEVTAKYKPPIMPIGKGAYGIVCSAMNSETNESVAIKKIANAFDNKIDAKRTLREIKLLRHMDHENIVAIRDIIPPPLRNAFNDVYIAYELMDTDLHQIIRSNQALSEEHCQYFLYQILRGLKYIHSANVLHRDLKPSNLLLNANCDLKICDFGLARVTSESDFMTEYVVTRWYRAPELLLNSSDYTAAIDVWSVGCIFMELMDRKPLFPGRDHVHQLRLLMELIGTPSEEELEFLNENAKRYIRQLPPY

Take “MPK6ΔNt (29–305) (from UniProt Q39026 29-305) (domain or fragment)”: the equilibrium dissociation constant (Kd) in assay [1] worked out at 43.4 nM; in assay [2] it was 1400 nM; in assay [3], 40.1 nM; in assay [4], 856 nM.
